How the values were obtained:
Assay in all cases: Kd (EC50 corrected by depletion factor)
MRPL12 = MRPL12 (UniProt P52815)
How it was run: (§1)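 HEK293-FT lysate (2.5 mg protein/well) was pre-incubated 1 h at 4°C with free RNA oligos (0 nM to 30 μM), then 30 min at 4°C with the same 5′-amino-C6 oligos coupled to NHS-Sepharose beads. Bound proteins were quantified by label-free LC-MS/MS in three biological replicates and two independent experiments, and normalised to the water control. EC50 came from a four-parameter log-logistic fit; Kd is EC50 times a protein-dependent depletion factor.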

MRPL48 = MRPL48 (UniProt Q96GC5)
How it was run: as §1

SRRM2 = SRRM2 (UniProt Q9UQ35)
SRRM2, sequence (Q9UQ35 whole entry): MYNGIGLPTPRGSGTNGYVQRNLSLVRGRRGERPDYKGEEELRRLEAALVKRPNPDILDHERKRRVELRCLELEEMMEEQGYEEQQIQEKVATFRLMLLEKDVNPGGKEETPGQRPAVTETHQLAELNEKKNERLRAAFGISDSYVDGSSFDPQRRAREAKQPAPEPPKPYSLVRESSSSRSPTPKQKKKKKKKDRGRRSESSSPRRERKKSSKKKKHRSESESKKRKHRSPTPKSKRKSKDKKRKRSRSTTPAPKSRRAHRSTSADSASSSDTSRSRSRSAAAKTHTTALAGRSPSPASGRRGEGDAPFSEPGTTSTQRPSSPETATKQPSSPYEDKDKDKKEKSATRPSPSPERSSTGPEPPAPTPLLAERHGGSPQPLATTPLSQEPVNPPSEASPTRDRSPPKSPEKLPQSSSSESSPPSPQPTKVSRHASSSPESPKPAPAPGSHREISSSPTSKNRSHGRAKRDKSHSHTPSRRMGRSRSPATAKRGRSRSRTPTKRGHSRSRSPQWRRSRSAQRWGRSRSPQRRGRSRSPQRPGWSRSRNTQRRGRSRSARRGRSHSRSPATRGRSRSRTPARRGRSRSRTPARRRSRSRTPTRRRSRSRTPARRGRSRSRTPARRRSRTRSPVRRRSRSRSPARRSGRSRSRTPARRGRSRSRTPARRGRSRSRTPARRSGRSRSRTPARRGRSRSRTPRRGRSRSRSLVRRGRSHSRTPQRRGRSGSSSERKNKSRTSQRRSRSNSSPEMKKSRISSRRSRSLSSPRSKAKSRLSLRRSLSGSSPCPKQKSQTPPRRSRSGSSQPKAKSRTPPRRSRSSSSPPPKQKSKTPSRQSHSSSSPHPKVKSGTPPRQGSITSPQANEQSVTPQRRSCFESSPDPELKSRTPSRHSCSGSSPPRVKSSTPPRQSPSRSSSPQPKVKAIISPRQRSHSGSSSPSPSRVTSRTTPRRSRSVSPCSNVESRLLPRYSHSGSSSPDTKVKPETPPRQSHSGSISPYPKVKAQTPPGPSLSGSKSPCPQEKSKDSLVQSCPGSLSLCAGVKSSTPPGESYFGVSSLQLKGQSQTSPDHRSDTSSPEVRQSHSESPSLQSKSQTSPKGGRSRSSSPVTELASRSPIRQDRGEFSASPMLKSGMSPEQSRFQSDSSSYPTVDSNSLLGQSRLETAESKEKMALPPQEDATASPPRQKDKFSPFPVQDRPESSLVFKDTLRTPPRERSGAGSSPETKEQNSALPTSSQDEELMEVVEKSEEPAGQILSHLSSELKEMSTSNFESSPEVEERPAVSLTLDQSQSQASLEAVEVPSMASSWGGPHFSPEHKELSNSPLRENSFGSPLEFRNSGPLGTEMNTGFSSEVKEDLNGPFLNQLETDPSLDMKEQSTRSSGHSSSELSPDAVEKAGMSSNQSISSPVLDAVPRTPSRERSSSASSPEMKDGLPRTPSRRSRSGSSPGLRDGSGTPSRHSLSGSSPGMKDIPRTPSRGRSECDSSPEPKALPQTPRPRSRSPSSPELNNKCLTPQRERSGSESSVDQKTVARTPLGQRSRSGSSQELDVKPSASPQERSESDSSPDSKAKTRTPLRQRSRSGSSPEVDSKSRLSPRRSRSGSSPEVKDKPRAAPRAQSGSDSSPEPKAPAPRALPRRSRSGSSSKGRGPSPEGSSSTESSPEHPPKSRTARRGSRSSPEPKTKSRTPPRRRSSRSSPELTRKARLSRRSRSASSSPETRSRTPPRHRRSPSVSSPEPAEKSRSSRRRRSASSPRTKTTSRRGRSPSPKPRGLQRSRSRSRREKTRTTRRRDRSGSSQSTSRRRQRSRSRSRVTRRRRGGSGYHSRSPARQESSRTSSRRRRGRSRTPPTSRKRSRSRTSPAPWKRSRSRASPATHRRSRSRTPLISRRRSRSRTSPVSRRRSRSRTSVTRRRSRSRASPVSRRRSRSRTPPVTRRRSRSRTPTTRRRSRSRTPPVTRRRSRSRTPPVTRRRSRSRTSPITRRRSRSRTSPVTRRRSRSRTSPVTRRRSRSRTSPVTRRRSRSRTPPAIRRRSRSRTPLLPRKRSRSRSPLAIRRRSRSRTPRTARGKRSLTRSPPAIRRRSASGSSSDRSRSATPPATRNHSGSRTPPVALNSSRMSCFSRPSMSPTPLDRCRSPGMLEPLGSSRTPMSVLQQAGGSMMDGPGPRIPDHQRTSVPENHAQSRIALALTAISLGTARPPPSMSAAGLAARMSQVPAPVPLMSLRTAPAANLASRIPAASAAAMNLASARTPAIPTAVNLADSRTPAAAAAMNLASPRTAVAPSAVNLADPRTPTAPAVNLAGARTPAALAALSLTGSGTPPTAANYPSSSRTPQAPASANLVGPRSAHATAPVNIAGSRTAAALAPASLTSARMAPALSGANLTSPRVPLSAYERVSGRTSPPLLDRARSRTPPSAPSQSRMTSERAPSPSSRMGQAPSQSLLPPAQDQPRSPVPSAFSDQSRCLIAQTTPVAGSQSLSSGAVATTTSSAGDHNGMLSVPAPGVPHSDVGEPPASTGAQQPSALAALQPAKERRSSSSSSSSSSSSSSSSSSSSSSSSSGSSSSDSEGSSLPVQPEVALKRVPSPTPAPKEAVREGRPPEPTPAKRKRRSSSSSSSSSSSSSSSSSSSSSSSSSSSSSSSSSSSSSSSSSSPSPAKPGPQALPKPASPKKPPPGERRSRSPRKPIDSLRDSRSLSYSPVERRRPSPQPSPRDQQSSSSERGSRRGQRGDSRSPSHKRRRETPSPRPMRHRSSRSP
How it was run: as §1

P4HA2 = P4HA2 (UniProt O15460)
P4HA2, sequence (O15460 whole entry): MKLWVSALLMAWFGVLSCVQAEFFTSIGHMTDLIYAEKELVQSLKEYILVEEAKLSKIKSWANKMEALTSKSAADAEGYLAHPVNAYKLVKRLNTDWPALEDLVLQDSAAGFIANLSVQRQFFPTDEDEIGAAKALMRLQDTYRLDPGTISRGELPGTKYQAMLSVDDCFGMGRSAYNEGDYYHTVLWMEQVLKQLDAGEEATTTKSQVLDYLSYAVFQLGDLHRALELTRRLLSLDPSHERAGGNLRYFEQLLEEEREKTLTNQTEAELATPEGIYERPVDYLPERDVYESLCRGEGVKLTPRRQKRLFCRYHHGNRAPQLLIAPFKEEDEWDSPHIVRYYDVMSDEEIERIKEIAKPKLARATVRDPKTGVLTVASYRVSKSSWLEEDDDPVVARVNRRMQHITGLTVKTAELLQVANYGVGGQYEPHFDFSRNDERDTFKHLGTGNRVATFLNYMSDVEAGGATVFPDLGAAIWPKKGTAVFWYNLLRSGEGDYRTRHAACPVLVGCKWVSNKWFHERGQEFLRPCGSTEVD
How it was run: as §1

RPS17 = RPS17 (UniProt P08708)
How it was run: as §1

TOE1 = TOE1 (UniProt Q96GM8)
How it was run: as §1

PTCD3 = PTCD3 (UniProt Q96EY7)
How it was run: as §1

HNRNPM = biological target: T1, HNRNPM (UniProt P52272)
T1 sequence: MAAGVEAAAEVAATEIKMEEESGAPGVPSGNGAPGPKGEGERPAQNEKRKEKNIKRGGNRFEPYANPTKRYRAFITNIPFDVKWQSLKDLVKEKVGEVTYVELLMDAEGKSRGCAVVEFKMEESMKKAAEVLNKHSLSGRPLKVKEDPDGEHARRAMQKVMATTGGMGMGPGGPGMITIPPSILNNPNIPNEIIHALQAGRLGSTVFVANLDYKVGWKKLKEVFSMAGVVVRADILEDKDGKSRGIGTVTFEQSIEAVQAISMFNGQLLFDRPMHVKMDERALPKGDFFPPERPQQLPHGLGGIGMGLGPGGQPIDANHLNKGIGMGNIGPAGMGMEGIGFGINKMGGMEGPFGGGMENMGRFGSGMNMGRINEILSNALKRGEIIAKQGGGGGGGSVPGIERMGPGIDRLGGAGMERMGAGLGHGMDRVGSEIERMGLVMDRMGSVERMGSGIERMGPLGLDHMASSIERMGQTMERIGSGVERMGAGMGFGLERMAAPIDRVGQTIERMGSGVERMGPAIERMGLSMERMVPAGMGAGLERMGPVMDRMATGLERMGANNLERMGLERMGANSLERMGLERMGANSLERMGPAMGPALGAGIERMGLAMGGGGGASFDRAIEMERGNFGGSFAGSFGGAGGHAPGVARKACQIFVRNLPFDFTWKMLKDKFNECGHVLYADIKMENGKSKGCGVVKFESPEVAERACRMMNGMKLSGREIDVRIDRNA
How it was run: as §1

PRPF4 = biological target: T2, PRPF4 (UniProt O43172)
T2 sequence: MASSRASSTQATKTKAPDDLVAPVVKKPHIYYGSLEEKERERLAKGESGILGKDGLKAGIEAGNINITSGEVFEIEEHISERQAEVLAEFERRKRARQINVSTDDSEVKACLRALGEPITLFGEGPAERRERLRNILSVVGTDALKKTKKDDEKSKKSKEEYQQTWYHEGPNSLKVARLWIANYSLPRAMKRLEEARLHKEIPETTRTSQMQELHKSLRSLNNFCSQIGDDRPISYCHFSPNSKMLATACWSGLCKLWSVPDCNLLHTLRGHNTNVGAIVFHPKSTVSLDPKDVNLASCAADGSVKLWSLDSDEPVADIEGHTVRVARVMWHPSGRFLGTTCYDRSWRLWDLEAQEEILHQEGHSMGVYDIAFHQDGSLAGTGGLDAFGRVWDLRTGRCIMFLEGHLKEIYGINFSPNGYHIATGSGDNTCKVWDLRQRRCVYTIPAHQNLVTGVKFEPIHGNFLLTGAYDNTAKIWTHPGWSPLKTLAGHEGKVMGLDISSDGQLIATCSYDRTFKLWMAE
How it was run: as §1

MRPS22 = MRPS22 (UniProt P82650)
How it was run: as §1

PPIE = PPIE (UniProt Q9UNP9)
PPIE, sequence (Q9UNP9 whole entry): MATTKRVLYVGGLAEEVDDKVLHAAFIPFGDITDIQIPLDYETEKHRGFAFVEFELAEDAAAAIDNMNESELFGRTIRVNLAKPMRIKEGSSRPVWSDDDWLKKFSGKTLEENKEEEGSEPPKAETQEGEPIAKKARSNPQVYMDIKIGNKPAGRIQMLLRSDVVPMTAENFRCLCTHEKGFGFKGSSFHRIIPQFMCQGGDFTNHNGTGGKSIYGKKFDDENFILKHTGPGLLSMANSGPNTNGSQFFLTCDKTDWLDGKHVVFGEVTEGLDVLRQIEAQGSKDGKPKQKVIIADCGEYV
How it was run: as §1

PATL1 = biological target: T3, PATL1 (UniProt Q86TB9)
T3 sequence: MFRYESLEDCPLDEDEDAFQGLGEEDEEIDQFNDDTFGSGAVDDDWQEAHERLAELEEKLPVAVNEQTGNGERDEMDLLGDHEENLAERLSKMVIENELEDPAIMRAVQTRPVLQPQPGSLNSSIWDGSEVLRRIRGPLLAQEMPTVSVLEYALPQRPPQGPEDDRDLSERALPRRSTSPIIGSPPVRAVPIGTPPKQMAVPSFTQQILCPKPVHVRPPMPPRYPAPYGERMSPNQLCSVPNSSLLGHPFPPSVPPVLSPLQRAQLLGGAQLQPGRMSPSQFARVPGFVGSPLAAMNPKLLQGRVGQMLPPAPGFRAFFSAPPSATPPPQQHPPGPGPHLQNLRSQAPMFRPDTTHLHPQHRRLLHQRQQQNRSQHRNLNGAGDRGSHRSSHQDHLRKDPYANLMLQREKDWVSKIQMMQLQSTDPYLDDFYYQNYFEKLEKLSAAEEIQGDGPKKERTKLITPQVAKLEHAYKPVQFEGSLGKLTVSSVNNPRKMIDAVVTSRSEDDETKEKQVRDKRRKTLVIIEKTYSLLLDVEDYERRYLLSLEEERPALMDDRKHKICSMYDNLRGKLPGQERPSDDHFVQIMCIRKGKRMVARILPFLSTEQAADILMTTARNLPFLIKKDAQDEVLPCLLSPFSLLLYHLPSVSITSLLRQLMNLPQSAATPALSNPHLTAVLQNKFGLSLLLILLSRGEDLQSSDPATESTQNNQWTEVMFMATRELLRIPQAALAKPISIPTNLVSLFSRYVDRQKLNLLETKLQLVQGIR
How it was run: as §1

MRPS23 = MRPS23 (UniProt Q9Y3D9)
How it was run: as §1

CUGUCCU
Kd (MRPL12): 43.7 nM | Kd (MRPL48): 96.1 nM

AAUAAA
Kd (SRRM2): 367 nM | Kd (P4HA2): 37.5 nM | Kd (RPS17): 126 nM

UAUUUAU
Kd (TOE1): 1020 nM | Kd (PTCD3): 27.4 nM | Kd (HNRNPM): 4410 nM | Kd (PRPF4): 2640 nM | Kd (MRPS22): 57.8 nM | Kd (PPIE): 205 nM | Kd (PATL1): 258 nM | Kd (MRPS23): 15.6 nM

— the supplement of paper PMC6379048
